Data from PMC4837182.

Key:
[1] = target: recombinant Plasmodium falciparum Hsp70-1 (PfHsp70-1), full length (Plasmodium falciparum); test: SPR; ProteOn XPR36, ligand amine-coupled to GLC chip, analyte 125-2000 nM at 50 μl/min, PBS-Tween with 20 mM EDTA pH 7.4, 25 °C, Langmuir fit; no nucleotide
[2] = target: recombinant Plasmodium falciparum Hsp70-1 (PfHsp70-1), full length (Plasmodium falciparum); test: SPR; ProteOn XPR36, ligand amine-coupled to GLC chip, analyte 125-2000 nM at 50 μl/min, PBS-Tween with 20 mM EDTA pH 7.4, 25 °C, Langmuir fit; with 5 mM ADP
[3] = target: recombinant Plasmodium falciparum Hsp70-1 (PfHsp70-1), full length (Plasmodium falciparum); test: SPR; ProteOn XPR36, ligand amine-coupled to GLC chip, analyte 125-2000 nM at 50 μl/min, PBS-Tween with 20 mM EDTA pH 7.4, 25 °C, Langmuir fit; with 5 mM ATP

- Kd [1]: 59.8 µM
- koff [1]: 2.96e-05 s⁻¹
- kon [1]: 0.495 M⁻¹ s⁻¹
- Kd [2]: 12.1 µM
- koff [2]: 3.61e-05 s⁻¹
- kon [2]: 298 M⁻¹ s⁻¹
- Kd [3]: 24.1 nM
- koff [3]: 2.42e-05 s⁻¹
- kon [3]: 997 M⁻¹ s⁻¹
Substance: recombinant Plasmodium falciparum Hsp70-z (PfHsp70-z) (natural protein)
